Assay results: article doi:10.1101/2020.06.17.158394 (bioRxiv, 2020)

Legend:
KaiC-EE (S. elongatus) = KaiC-EE (S. elongatus) (UniProt Q79PF4); assay: fluorescence polarisation
KaiC = molecular target: T1, KaiC (S. elongatus, UniProt Q79PF4 1-519); assay: fluorescence polarisation
T1 sequence: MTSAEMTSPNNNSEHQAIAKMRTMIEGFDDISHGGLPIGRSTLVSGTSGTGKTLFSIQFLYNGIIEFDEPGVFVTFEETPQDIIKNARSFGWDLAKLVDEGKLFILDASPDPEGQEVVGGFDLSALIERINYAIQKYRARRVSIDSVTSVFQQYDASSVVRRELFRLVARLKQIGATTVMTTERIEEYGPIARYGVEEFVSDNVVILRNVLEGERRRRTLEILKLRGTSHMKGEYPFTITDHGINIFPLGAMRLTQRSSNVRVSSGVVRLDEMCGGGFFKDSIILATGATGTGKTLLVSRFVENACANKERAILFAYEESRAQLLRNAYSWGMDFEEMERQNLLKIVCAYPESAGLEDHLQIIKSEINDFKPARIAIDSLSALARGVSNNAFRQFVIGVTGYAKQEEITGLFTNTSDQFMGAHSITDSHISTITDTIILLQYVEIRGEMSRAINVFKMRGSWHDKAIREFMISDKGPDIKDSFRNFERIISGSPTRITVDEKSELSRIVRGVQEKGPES

B1: full-length SasA (enzyme)
chain: MGESLSPQALAQPLLLQLFVDTRPLSQHIVQRVKNILAAVEATVPISLQVINVADQPQLVEYYRLVVTPALVKIGPGSRQVLSGIDLTDQLANQLPQWLVQQEAFFADREPPEVNIPFTELGQPETPALQQADAFFQLQQQYADLSERTKFLEQVIALVAHDLRNPLTAALLAVDTIQIRSQSFSVATAKEMQGLCSLFDQARSQLREIERMIAEILEATRHSGESLRINPREVVFEPLLQQVLEQLHERWRSKQQQLITDVPGDLPTLYADPDRLRQVLVNLLDNAIKYTPPGGTITIAALHRTSQKVQISISDTGSGIPRDQLSVIFKNLVRLSRDSSQEGYGIGLSVCQRIVQAHFGRIWVASELGQGSTFHFTMPVYRYTMPC
fold increase in affinity against SasAtrx (KaiC-EE (S. elongatus)): > 100 fold | binding result (KaiC): binds
